Results reported in paper PMC8948244, “Pumilio protects Xbp1 mRNA from regulated Ire1-dependent decay”.

Experiments:
[1] = biological target: T1, hPUM1-HD (Pum-HD domain of human PUM1) (Homo sapiens, UniProt Q14671 828-1168); assay: EMSA; 100-300 nM protein, 10 nM probe; 10 mM Hepes/KOH pH 7.4, 50 mM KCl, 3 mM MgCl2, 1 mM EDTA, 0.1 mg/ml yeast tRNA, 2 mM DTT, 0.01% Tween-20, 0.2 U RNasin, 5% glycerol, 20 µl; 1 h on ice; 6% native gel, 0.5x TBE, room temperature; conditions: protein: recombinant; label: 3' biotin-TEG; single strand
[2] = biological target: T1, hPUM1-HD (Pum-HD domain of human PUM1); assay: competition; EMSA; 5x, 10x, 50x excess over biotin-labeled WT probe; shifted band disappeared; 10 mM Hepes/KOH pH 7.4, 50 mM KCl, 3 mM MgCl2, 1 mM EDTA, 0.1 mg/ml yeast tRNA, 2 mM DTT, 0.01% Tween-20, 0.2 U RNasin, 5% glycerol, 20 µl; 1 h on ice; 6% native gel, 0.5x TBE, room temperature; conditions: protein: recombinant; single strand
[3] = biological target: T1, hPUM1-HD (Pum-HD domain of human PUM1); assay: competition; EMSA; 5x, 10x, 50x excess (source data label: 25x) over biotin-labeled WT probe; no effect; 10 mM Hepes/KOH pH 7.4, 50 mM KCl, 3 mM MgCl2, 1 mM EDTA, 0.1 mg/ml yeast tRNA, 2 mM DTT, 0.01% Tween-20, 0.2 U RNasin, 5% glycerol, 20 µl; 1 h on ice; 6% native gel, 0.5x TBE, room temperature; conditions: protein: recombinant; single strand

T1 sequence (Q14671 828-1168): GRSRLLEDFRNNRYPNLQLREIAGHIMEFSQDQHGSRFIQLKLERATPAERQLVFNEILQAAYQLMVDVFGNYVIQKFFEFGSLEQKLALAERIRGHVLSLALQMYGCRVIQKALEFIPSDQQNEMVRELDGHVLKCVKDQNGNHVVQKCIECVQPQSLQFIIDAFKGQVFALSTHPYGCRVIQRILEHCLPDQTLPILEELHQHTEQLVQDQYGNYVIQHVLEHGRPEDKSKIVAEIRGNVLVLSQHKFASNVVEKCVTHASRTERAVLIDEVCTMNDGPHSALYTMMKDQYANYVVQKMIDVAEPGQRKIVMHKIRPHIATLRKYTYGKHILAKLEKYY

B1: pum1site-wt-3BioTEG (Xbp1 3'UTR PRE1) (ssRNA)
RNA: GAUAGGCUGUACAUAAAUUCAUAAUCG
Does B1 bind [1]?
Result: binds

B2: pum1site-wt (unlabeled competitor) (ssRNA)
RNA: GAUAGGCUGUACAUAAAUUCAUAAUCG
Does B2 bind [2]?
Result: binds

B3: pum1site-mut (unlabeled competitor, UGUA to ACAA) (ssRNA)
RNA: GAUAGGCACAACAUAAAUUCAUAAUCG
Does B3 bind [3]?
Result: no binding
